Legend:
[1] = biological target: N-2-[(7-methoxy-2-oxo-2H-chromen-4-yl)acetyl]-L-arginyl-L-prolyl-L-leucylglycyl-L-leucyl-3-[(2,4-dinitrophenyl)amino]-L-alanyl-L-alanyl-D-arginyl-D-alpha-glutamyl-D-argininamide
[2] = biological target: N-2-[(7-methoxy-2-oxo-2H-chromen-4-yl)acetyl]-L-arginyl-L-prolyl-L-leucylglycyl-L-leucyl-3-[(2,4-dinitrophenyl)amino]-L-alanyl-L-alanyl-L-arginyl-L-alpha-glutamyl-L-argininamide
[3] = biological target: N-2-[(7-methoxy-2-oxo-2H-chromen-4-yl)acetyl]-L-arginyl-L-prolyl-L-leucylglycyl-6-(benzyloxy)-L-norleucyl-3-[(2,4-dinitrophenyl)amino]-L-alanyl-L-alanyl-L-arginyl-L-alpha-glutamyl-L-argininamide
[4] = biological target: N-2-[(7-methoxy-2-oxo-2H-chromen-4-yl)acetyl]-D-arginyl-L-prolyl-L-leucylglycyl-6-(benzyloxy)-L-norleucyl-3-[(2,4-dinitrophenyl)amino]-L-alanyl-L-alanyl-D-arginyl-D-alpha-glutamyl-D-argininamide
[5] = biological target: N-2-[(7-methoxy-2-oxo-2H-chromen-4-yl)acetyl]-D-arginyl-L-prolyl-L-leucylglycyl-L-leucyl-3-[(2,4-dinitrophenyl)amino]-L-alanyl-L-alanyl-D-arginyl-D-alpha-glutamyl-D-argininamide
[6] = biological target: N-2-[(7-methoxy-2-oxo-2H-chromen-4-yl)acetyl]-D-arginyl-L-prolyl-L-leucylglycyl-6-phenoxy-L-norleucyl-3-[(2,4-dinitrophenyl)amino]-L-alanyl-L-alanyl-D-arginyl-D-alpha-glutamyl-D-argininamide

B1: MMP-1 (protein)
chain: FVLTEGNPRWEQTHLTYRIENYTPDLPRADVDHAIEKAFQLWSNVTPLTFTKVSEGQADIMISFVRGDHRDNSPFDGPGGNLAHAFQPGPGIGGDAHFDEDERWTNNFREYNLHRVAAHELGHSLGLSHSTDIGALMYPSYTFSGDVQLAQDDIDGIQAIYGRSQNPVQPIGPQTPKACDSKLTFDAITTIRGEVMFFKDRFYMRTNPFYPEVELNFISVFWPQLPNGLEAAYEFADRDEVRFFKGNKYWAVQGQNVLHGYPKDIYSSFGFPRTVKHIDAALSEENTGKTYFFVANKYWRYDEYKRSMDPGYPKMIAHDFPGIGHKVDAVFMKDGFFYFFHGTRQYKFDPKTKRILTLQKANSWFNCRKN
Q: How did the Km [1] turn out when B1 was run?
A: The Km was 17.3 µM.

Q: What about the kcat/Km [1] of the same protein?
A: The kcat/Km was 176000 M⁻¹ s⁻¹.

Q: What about the Km [2] of the same protein?
A: Its Km is 16 µM.

Q: What about the kcat/Km [2] of the same protein?
A: The kcat/Km was 255000 M⁻¹ s⁻¹.

Q: What about the kcat/Km [3] of the same protein?
A: Its kcat/Km is 0 M⁻¹ s⁻¹.

Q: What about the Km [4] of the same protein?
A: The Km was 35.1 µM.

Q: What about the kcat/Km [4] of the same protein?
A: The kcat/Km was 3600 M⁻¹ s⁻¹.

Q: What about the Km [5] of the same protein?
A: The Km was 49 µM.

Q: And the kcat/Km [5]?
A: Its kcat/Km is 57000 M⁻¹ s⁻¹.

Q: What about the kcat/Km [6] of the same protein?
A: Its kcat/Km is 0 M⁻¹ s⁻¹.

B2: MMP-2 (protein)
chain: YNFFPRKPKWDKNQITYRIIGYTPDLDPETVDDAFARAFQVWSDVTPLRFSRIHDGEADIMINFGRWEHGDGYPFDGKDGLLAHAFAPGTGVGGDSHFDDDELWTLGEGQVVRVKYGNADGEYCKFPFLFNGKEYNSCTDTGRSDGFLWCSTTYNFEKDGKYGFCPHEALFTMGGNAEGQPCKFPFRFQGTSYDSCTTEGRTDGYRWCGTTEDYDRDKKYGFCPETAMSTVGGNSEGAPCVFPFTFLGNKYESCTSAGRSDGKMWCATTANYDDDRKWGFCPDQGYSLFLVAAHEFGHAMGLEHSQDPGALMAPIYTYTKNFRLSQDDIKGIQELYGASPDIDLGTGPTPTLGPVTPEICKQDIVFDGIAQIRGEIFFFKDRFIWRTVTPRDKPMGPLLVATFWPELPEKIDAVYEAPQEEKAVFFAGNEYWIYSASTLERGYPKPLTSLGLPPDVQRVDAAFNWSKNKKTYIFAGDKFWRYNEVKKKMDPGFPKLIADAWNAIPDNLDAVVDLQGGGHSYFFKGAYYLKLENQSLKSVKFGSIKSDWLGC
Q: How did the Km [1] turn out when B2 was run?
A: Its Km is 16.3 µM.

Q: And the kcat/Km [1]?
A: Its kcat/Km is 681000 M⁻¹ s⁻¹.

Q: And the Km [2]?
A: Its Km is 16.5 µM.

Q: What about the kcat/Km [2] of the same protein?
A: The kcat/Km was 565000 M⁻¹ s⁻¹.

Q: What about the Km [3] of the same protein?
A: Its Km is 8.3 µM.

Q: What about the kcat/Km [3] of the same protein?
A: Its kcat/Km is 1.34e+06 M⁻¹ s⁻¹.

Q: What about the Km [4] of the same protein?
A: The Km was 3.7 µM.

Q: What about the kcat/Km [4] of the same protein?
A: Its kcat/Km is 600000 M⁻¹ s⁻¹.

Q: What about the Km [5] of the same protein?
A: Its Km is 9.9 µM.

Q: And the kcat/Km [5]?
A: Its kcat/Km is 178000 M⁻¹ s⁻¹.

Q: What about the Km [6] of the same protein?
A: Its Km is 3.6 µM.

Q: What about the kcat/Km [6] of the same protein?
A: Its kcat/Km is 1.96e+06 M⁻¹ s⁻¹.

B3: MMP-7 (protein)
chain: YSLFPNSPKWTSKVVTYRIVSYTRDLPHITVDRLVSKALNMWGKEIPLHFRKVVWGTADIMIGFARGAHGDSYPFDGPGNTLAHAFAPGTGLGGDAHFDEDERWTDGSSLGINFLYAATHELGHSLGMGHSSDPNAVMYPTYGNGDPQNFKLSQDDIKGIQKLYGKRSNSRKK
Q: Which results are given for B3?
A: Km [1]: 25 µM; kcat/Km [1]: 120000 M⁻¹ s⁻¹; Km [2]: 26.4 µM; kcat/Km [2]: 142000 M⁻¹ s⁻¹; kcat/Km [3]: 0 M⁻¹ s⁻¹; Km [4]: 94.7 µM; kcat/Km [4]: 2980 M⁻¹ s⁻¹; Km [5]: 81.2 µM; kcat/Km [5]: 22000 M⁻¹ s⁻¹; kcat/Km [6]: 0 M⁻¹ s⁻¹
